B1: host PD-1-Fc fusion protein (Fc fusion)
chain: LDAPSRPWSPLTFSPARLTVPEGANATFTCSFSSKPEHFVLNWYRMSPSNQTDKLAAFPEDRSQPGRDRRFHVTPLPGGRHFHMSIMAAQRNDSGVYFCGAIYLPPKTQINESRPAELT
B2: host PD-L1-Fc fusion protein (Fc fusion)
chain: FTITVPKDLYVVEYGSNVTLECRFPVDKQLNLLALVVYWEMEDKKIIQFVNGEEDLNVQHSSYNQRALLLKNQLPLGKAALQITDVKLQDAGIYCCLISYGGADYKRITLKVNASYRKINQTISVDPVTSEHELMCQAEGYPEAEVIWTSSDHRVLSGKTTITSSKREEKLFNVTSTLRINTTANEIFYCIFRRLGHEENSTAELV

Key:
De2-Fc fusion protein = De2-Fc fusion protein (Tursiops truncatus gammaherpesvirus 1); assay: SPR
[1] = target: B1; assay: SPR

| Binder | koff (De2-Fc fusion protein) | koff [1] |
| --- | --- | --- |
| B1 | 0.000696 s⁻¹ |  |
| B2 |  | 0.000488 s⁻¹ |

— PMC9514091 (2022)
